Data set [1] addresses NPH-II (DExH RNA helicase) (Vaccinia virus) (UniProt P12927). Description: EMSA.
Data set [2] concerns the target U1A (N-terminal RNP domain, residues 1-117) (UniProt P09012). Description: EMSA.
Data set [3] has as its system RNA substrate containing the U1A binding site from the 3′-untranslated region (UTR) of U1A mRNA. Description: U1A dissociation (off-rate) from RNA substrate, gel-shift with U1A trap. As to the method:
(§1) FIG. 3. Active displacement of U1A by NPH-II. Dissociation experiments were conducted with 1 nM RNA substrate and 10 nM U1A in a buffer of 40 mM Tris/HCl (pH 8.0), 4 mM MgCl2 at 23° C. (final volume, 40 μL)- Reactions were performed as described in FIG. 2, except that they were initiated by addition of ATP (3.5 mM final concentration) and U1A trap (200 nM final concentration (16)), as indicated. Aliquots (6 μL) were withdrawn at 0, 1, 4, 8, 12, and 20 minutes, mixed with 2 μL of 100 mM EDTA and 2.5 μM NPH-II trap (which serves to capture dissociated NPH-II (16)) in 30% glycerol. Each aliquot was then loaded immediately on a 8% native polyacrylamide gel, which was run at 4° C. at 10V/cm. Bands were visualized by PhosphorImager. U1A-bound and free RNA as well as unwound and duplex RNA species are indicated by the cartoons at left (D: bound U1A dimer, M: bound U1A monomer, F: U1A free duplex substrate, U: unwound substrate). A. Release of U1A upon addition of ATP (initiated by adding ATP together with U1A trap). B. Release of U1A upon addition of NPH-II without ATP (initiated by adding only U1A trap). C. Release of U1A in the presence of ATP and NPH-II (initiated by adding ATP together with U1A trap) D. Trapping control: U1A trap is added together with RNA substrate to assess trapping efficiency. Aliquots were removed and treated as described above. E-H. Same reactions as above, but with blunt-end control duplex.
The off-rate for U1A was measured by saturating the substrate with U1A and, after complex formation, adding a large excess of RNA that contains another high-affinity U1A binding site (15). This prevented U1A from re-binding the substrate once it detached and enabled us to monitor the rate of U1A release by gel-shift electrophoresis (FIG. 3).

The test system is the same in data set [4]. The note with it: previously shown; cited from earlier work.
For another data set, the system named is DNA. The settings on record: cited from earlier work.
Data set [5] deals with U1A (N-terminal RNP domain, residues 1-117) (UniProt P09012 P09012:1-117). Description: competition; used at 200 nM to trap dissociated U1A. The settings on record: chain copies: 2 (stated, dimer; monomer also seen); hairpin. As to the method:
as §1, with “MgCl₂” for “MgCl2”, “E-H. Same reactions as above, but with blunt-end control duplex.” left out

In the case of “36 bp duplex substrate LS36 with 3' overhang”, the activity in data set [1] (unwinding rate constant 3.5±0.2 independent of duplex length, Mg2+, 3.5 mM ATP) stood at 3.5 min⁻¹.
The molecule “83 bp duplex substrate LS83 with 3' overhang” displayed an activity in data set [1] (unwinding rate constant 3.5±0.2 independent of duplex length, lower amplitude with trap RNA, Mg2+, 3.5 mM ATP) of 3.5 min⁻¹.
Molecule “U1A 3'UTR binding site helicase substrate with 24-nt 3' overhang (AN22U-3')” displayed an activity in data set [1] (unwinding rate constant without U1A, 3.5 mM ATP, 4 mM MgCl2, pH 8.0, room temperature, with U1A k1 3.52 min-1) of 3.5 min⁻¹. Besides, the dissociation rate constant (koff) in data set [2] (40 mM Tris pH 8.0, 4 mM MgCl2, 23 C, U1A trap, no NPH-II, high affinity binding at 10 nM U1A) was 0.000167 s⁻¹.
For “U1A: RNA-binding protein with N-terminal RNP domain, constituent of the spliceosomal machinery”, in data set [3] (gel shift, 1 nM RNA, 10 nM U1A), the “U1A binding to substrate and control RNA” value is reported as “high affinity”. Further, the “off-rate koff of U1A” value in data set [3] (without NPH-II (and ATP)) is ~10^−2 min^−1. Further, the “U1A dissociates from the substrate” value in data set [3] (without NPH-II, within 20 minutes) is “roughly 15%”. Also, in data set [4], the “affinity of extended two-piece substrate for U1A binding” value is reported as “subnanomolar affinity”.
On to “blunt-end U1A binding site control duplex”, for which the koff in data set [2] (off-rate similar to overhang substrate, not increased by NPH-II plus ATP) amounted to 0.000167 s⁻¹.
Turning to “multi-piece substrates (nicked top strand)”, the activity in data set [1] (both pieces displaced, 3.3±0.5, Mg2+, trap RNA, 3'-to-5' directionality) amounted to 3.3 min⁻¹.

B1: UvrD DNA helicase: DNA helicase cited for comparison of unwinding step size (Ali and Lohmann, 1997) (protein, UniProt P03018 1-720, looked up)
DNA helicase II: MDVSYLLDSLNDKQREAVAAPRSNLLVLAGAGSGKTRVLVHRIAWLMSVENCSPYSIMAVTFTNKAAAEMRHRIGQLMGTSQGGMWVGTFHGLAHRLLRAHHMDANLPQDFQILDSEDQLRLLKRLIKAMNLDEKQWPPRQAMWYINSQKDEGLRPHHIQSYGNPVEQTWQKVYQAYQEACDRAGLVDFAELLLRAHELWLNKPHILQHYRERFTNILVDEFQDTNNIQYAWIRLLAGDTGKVMIVGDDDQSIYGWRGAQVENIQRFLNDFPGAETIRLEQNYRSTSNILSAANALIENNNGRLGKKLWTDGADGEPISLYCAFNELDEARFVVNRIKTWQDNGGALAECAILYRSNAQSRVLEEALLQASMPYRIYGGMRFFERQEIKDALSYLRLIANRNDDAAFERVVNTPTRGIGDRTLDVVRQTSRDRQLTLWQACRELLQEKALAGRAASALQRFMELIDALAQETADMPLHVQTDRVIKDSGLRTMYEQEKGEKGQTRIENLEELVTATRQFSYNEEDEDLMPLQAFLSHAALEAGEGQADTWQDAVQLMTLHSAKGLEFPQVFIVGMEEGMFPSQMSLDEGGRLEEERRLAYVGVTRAMQKLTLTYAETRRLYGKEVYHRPSRFIGELPEECVEEVRLRATVSRPVSHQRMGTPMVENDSGYKLGQRVRHAKFGEGTIVNMEGSGEHSRLQVAFQGQGIKWLVAAYARLESV
For the molecule B1, in the data set with DNA, the unwinding step size was 4-5 bp.
With GGAGAACCAUUGCACUCCGGUUCUUC (ssRNA) [U1A trap (U1 snRNA hairpin)], the binding result in data set [5] is reported as “binds”.
